Measured values: PMC4454446
Read-outs that look alike come from different tables or passages of the source.

Key:
[1] = target: chicken bestrophin-1 crystallization construct, amino acids 1-405 (Best1_(cryst)) (chicken (Gallus gallus)); experiment: crystal structure
[2] = target: chicken bestrophin-1 crystallization construct, amino acids 1-405 (Best1_(cryst)) (chicken (Gallus gallus)); experiment: SEC
[3] = target: chicken bestrophin-1 crystallization construct, amino acids 1-405 (Best1_(cryst)) (chicken (Gallus gallus)); experiment: SEC; remark: listed apart in the source

stoichiometry N [1]	Kd [2]	Kd [3]	Molecule
5	–	–	chicken bestrophin-1 crystallization construct, amino acids 1-405 (Best1_(cryst)) (domain or fragment)
–	15 nM	350 nM	Fab fragment of mouse monoclonal antibody 10D10 (Fab, V domains shown) VH: QVQLQQSGPELVRPGASVKMSCKASGYTFTNYWMHWVKQRPGQALEWIGMIDPSKSETTLNQKFRGKATLNVDKSSNTAYMQLSSLTSEDSAVYYCAREVYYFDYWGQGTTLTVSS VL: DIQMTQSPASLSASVGETVTITCRASENIYSYLTWYQQKQGKSPQLLVYNAKTLTEGVPSRFSGSGSGTQFSLKINSLQPEDFGGYFCQHHYGTPPTFGGGTKLEVK
